# Source: article PMC11014909 (2024)
# B1: GST-Pif1N(56–77) [S. cerevisiae] / Rfa1N(1–132)-4myc [S. cerevisiae] (parent complex)
# chain 1: KHPSILSKEDLDLLSDSDDWEE
# chain 2: MSSVQLSRGDFHSIFTNKQRYDNPTGGVYQVYNTRKSDGANSNRKNLIMISDGIYHMKALLRNQAASKFQSMELQRGDIIRVIIAEPAIVRERKKYVLLVDDFELVQSRADMVNQTSTFLDNYFSEHPNETL
# Variants of: B1
# Test: GST pull-down followed by myc-specific western blotting, quantified; n = 3 biological replicates; parent: 0.53; read off a plot
row,Variant,response
1,chain 1 KHPSILSKEDAAAASDSDDWEE,~0.077 % of input
